First the molecules themselves.
B1: 292 (protein)
chain: MGHHHHHHGGSVSDVPRDLEVVAATPTSLLISWEYKVHPYRYYRITYGETGGNSPVQEFTVPSVLSTATIHGLKPGVDYTITVYAVTYGDDSAPISINYRTEID
modifications: Adnectin
B2: 296 (protein)
chain: MGHHHHHHGGSVSDVPRDLEVVAATPTSLLISWEYKVATYRYYRITYGETGGNSPVQEFTVPSVLSTATISGLKPGVDYTITVYAVTYGDDSAPISINYRTEID
modifications: Adnectin
B3: 306 (protein)
chain: MGHHHHHHGGSVSDVPRDLEVVAATPTSLLISWEYKVDYRRYYRITYGETGGNSPVQEFTVPSVLSTATISGLKPGVDYTITVYAVTYGDDSAPISINYRTEID
modifications: Adnectin
B4: 309 (protein)
chain: MGHHHHHHGGSVSDVPRDLEVVAATPTSLLISWEYKVHPYRYYRITYGETGGNSPVQEFTVPSVLSTATISGLKPGVDYTITVYAVTHGDDSAPISINYRTEID
modifications: Adnectin
B5: 322 (protein)
chain: MGHHHHHHGGSVSDVPRDLEVVAATPTSLLISWEYKVHPYRYYRITYGETGGNSPVQEFTVPSVLSTATISGLKPGVDYTITVYAVTYGTDSAPISINYRTEID
modifications: Adnectin
B6: 304 (protein)
chain: MGHHHHHHGGSVSDVPRDLEVVAATPTSLLISWEYKVAHDRYYRITYGETGGNSPVQEFTVPSVLSTATISGLKPGVDYTITVYAVTYGDDSAPISINYRTEID
modifications: Adnectin
B7: 295 (protein)
chain: MGHHHHHHGGSVSDVPRDLEVVAATPTSLLISWEYKVAAYRYYRITYGETGGNSPVQEFTVPSVLSTATISGLKPGVDYTITVYAVTYGDDSAPISINYRTEID
modifications: Adnectin
B8: 315 (protein)
chain: MGHHHHHHGGSVSDVPRDLEVVAATPTSLLISWEYKVDRWRYYRITYGETGGNSPVQEFTVPSVLSTATISGLKPGVDYTITVYAVTYGDDSAPISINYRTEID
modifications: Adnectin
B9: 319 (protein)
chain: MGHHHHHHGGSVSDVPRDLEVVAATPTSLLISWEYKVSHGRYYRITYGETGGNSPVQEFTVPSVLSTATISGLKPGVDYTITVYAVTYGDDSAPISINYRTEID
modifications: Adnectin
B10: 313 (protein)
chain: MGHHHHHHGGSVSDVPRDLEVVAATPTSLLISWEYKVAHGRYYRITYGETGGNSPVQEFTVPSVLSTATISGLKPGVDYTITVYAVTYGDDSAPISINYRTEID
modifications: Adnectin
B11: 317 (protein)
chain: MGHHHHHHGGSVSDVPRDLEVVAATPTSLLISWEYKVNAYRYYRITYGETGGNSPVQEFTVPSVLSTATISGLKPGVDYTITVYAVTYGDDSAPISINYRTEID
modifications: Adnectin
B12: 316 (protein)
chain: MGHHHHHHGGSVSDVPRDLEVVAATPTSLLISWEYAVHPYRYYRITYGETGGNSPVQEFTVPSVLSTATISGLKPGVDYTITVYAVTYGDDSAPISINYRTEID
modifications: Adnectin
B13: 320 (protein)
chain: MGHHHHHHGGSVSDVPRDLEVVAATPTSLLISWEYKVTTWRYYRITYGETGGNSPVQEFTVPSVLSTATISGLKPGVDYTITVYAVTYGDDSAPISINYRTEID
modifications: Adnectin
B14: 299 (protein)
chain: MGHHHHHHGGSVSDVPRDLEVVAATPTSLLISWKYKVHPYRYYRITYGETGGNSPVQEFTVPSVLSTATISGLKPGVDYTITVYAVTYGDDSAPISINYRTEID
modifications: Adnectin
B15: 298 (protein)
chain: MGHHHHHHGGSVSDVPRDLEVVAATPTSLLISWEYKVDYQRYYRITYGETGGNSPVQEFTVPSVLSTATISGLKPGVDYTITVYAVTYGDDSAPISINYRTEID
modifications: Adnectin
B16: 308 (protein)
chain: MGHHHHHHGGSVSDVPRDLEVVAATPTSLLISWEYKVNAWRYYRITYGETGGNSPVQEFTVPSVLSTATISGLKPGVDYTITVYAVTYGDDSAPISINYRTEID
modifications: Adnectin
B17: 310 (protein)
chain: MGHHHHHHGGSVSDVPRDLEVVAATPTSLLISWEYKVHPYRYYRITYGETGGNSPVQEFTVPSVLSTATINGLKPGVDYTITVYAVTYGDDSAPISINYRTEID
modifications: Adnectin
B18: 133 (protein)
chain: MGHHHHHHGGSVSDVPRDLEVVAATPTSLLISWEYKVHYDRYYRITYGETGGNSPVQEFTVPSVLSTATISGLKPGVDYTITVYAVTYGVDSDPISINYRTEID
modifications: Adnectin
B19: 303 (protein)
chain: MGHHHHHHGGSVSDVPRDLEVVAATPTSLLISWEYKVHPYRYYRITYGETGGNSPVQEFKVPSVLSTATISGLKPGVDYTITVYAVTYGDDSAPISINYRTEID
modifications: Adnectin
B20: 302 (protein)
chain: MGHHHHHHGGSVSDVPRDLEVVAATPTSLLISWEYKVHPYRYYRITYGETGGNSPVQEFTVPSVLSSATINGLKPGVDYTITVYAVTYGDDSAPISINYRTEID
modifications: Adnectin
B21: 294 (protein)
chain: MGHHHHHHGGSVSDVPRDLEVVAATPTSLLISWEYKVHPYRYYRITYGETGGNSPVQEFTVPSVLSSATISGLKPGVDYTITVYAVTYGDDSAPISINYRTEID
modifications: Adnectin
B22: 311 (protein)
chain: MGHHHHHHGGSVSDVPRDLEVVAATPTSLLISWEYKVHPYRYYRITYGETGGNSPVQEFTVPSVLSTAEISGLKPGVDYTITVYAVTYGDDSAPISINYRTEID
modifications: Adnectin
B23: 297 (protein)
chain: MGHHHHHHGGSVSDVPRDLEVVAATPTSLLISWEYKVDPWRYYRITYGETGGNSPVQEFTVPSVLSTATISGLKPGVDYTITVYAVTYGDDSAPISINYRTEID
modifications: Adnectin
B24: 312 (protein)
chain: MGHHHHHHGGSVSDVPRDLEVVAATPTSLLISWEYKVHPYRYYRITYGETGGNSPVQEFLVPSVLSTATISGLKPGVDYTITVYAVTYGDDSAPISINYRTEID
modifications: Adnectin
B25: 318 (protein)
chain: MGHHHHHHGGSVSDVPRDLEVVAATPTSLLISWEYKVNGYRYYRITYGETGGNSPVQEFTVPSVLSTATISGLKPGVDYTITVYAVTYGDDSAPISINYRTEID
modifications: Adnectin
B26: 305 (protein)
chain: MGHHHHHHGGSVSDVPRDLEVVAATPTSLLISWEYKVDPYRYYRITYGETGGNSPVQEFTVPSVLSTATISGLKPGVDYTITVYAVTYGDDSAPISINYRTEID
modifications: Adnectin
B27: 314 (protein)
chain: MGHHHHHHGGSVSDVPRDLEVVAATPTSLLISWEYKVAYKRYYRITYGETGGNSPVQEFTVPSVLSTATISGLKPGVDYTITVYAVTYGDDSAPISINYRTEID
modifications: Adnectin
B28: 293 (protein)
chain: MGHHHHHHGGSVSDVPRDLEVVAATPTSLLISWEYKVHPYRYYRITYGETGGNSPVQEFTVPSVLSTATLRGLKPGVDYTITVYAVTYGDDSAPISINYRTEID
modifications: Adnectin
B29: 307 (protein)
chain: MGHHHHHHGGSVSDVPRDLEVVAATPTGLLISWEYKVHPYRYYRITYGETGGNSPVQEFTVPSVLSTATISGLKPGVDYTITVYAVTYGDDSAPISINYRTEID
modifications: Adnectin
B30: 321 (protein)
chain: MGHHHHHHGGSVSDVPRDLEVVAATPTSLLISWEYKVHPYRYYRITYGETGGNSPVQEFTVPSVLSSAXLSGLKPGVDYTITVYAVTYGDDSAPISINYRTEID
modifications: not fully specified
B31: 134 (protein)
chain: MGHHHHHHGGSVSDVPRDLEVVAATPTSLLISWDAPAVTVEQYYIAYYDEKEPSSYQYFRVPGSKSTATISGLKPGVEYAIFVNAVTRSGVLPEFSLPISINYRTEGS
modifications: Adnectin
B32: 301 (protein)
chain: MGHHHHHHGGSVSDVPRDLEVVAATPTSLLISWEYKVHPYRYYRITYGETGGNSPVQEFTVPSVLSTATISGLKPGVDYTITVYAVTHGDDFAPISINYRTEMLI
modifications: Adnectin
B33: 132 (protein)
chain: MGHHHHHHGGSVSDVPRDLEVVAATPTSLLISWDAPAVTVEEYYIGYYVEFEPSSYQWFTVPGSKSTATISGLKPGVEYSIYVNAVTGMGMQPEMSLPISINYRTEGS
modifications: Adnectin

Bounds are passed on as bounds.

For this assay, the system named is NL-Rluc virus. The assay can be described thus: Combinectin potency assay: antiviral EC50, NL-Rluc virus in MT-2 cells, luciferase readout. Type of assay: cell-based, HIV-1. The settings on record: Anti-N17 Adnectin, Table 3. The method, boiled down:
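MT-2 cells infected with replication-competent NL-Rluc HIV (nef replaced by Renilla luciferase) at MOI 0.01 for 1 h, then added to threefold-diluted peptides (11 concentrations, triplicate). After 4–5 days, luciferase measured by Dual Luciferase; EC50 relative to no-peptide wells.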
One may read the EC50 as the midpoint of the concentration-response curve. With B1, the 50% effective concentration (EC50) was 52 nM. Turning to B2, the EC50 is greater than 1000 nM. Under B3 stands greater than 1000 nM.

With B4, the EC50 was greater than 1000 nM.

On to B5, for which the EC50 is 96 nM.

As to B6, the EC50 was greater than 1000 nM. On to B7, for which the EC50 was greater than 1000 nM. To B8 belongs greater than 1000 nM; to B9, greater than 1000 nM. To B10 belongs greater than 1000 nM; to B11, greater than 1000 nM; to B12, 331 nM. On to B13, for which the EC50 was greater than 1000 nM. B14: the EC50 was greater than 1000 nM. Under B15 stands greater than 1000 nM; under B16, greater than 1000 nM. For B17, the EC50 stood at 62 nM.

Turning to B18, the EC50 was 42 nM.

Consider B19, for which the EC50 was found to be 109 nM.

B20: the EC50 stood at 4 nM. To B21 belongs 101 nM; to B22, 42 nM. Take B23: the EC50 is 30 nM. Consider B24, for which the EC50 was determined as 37 nM.

In the case of B25, the EC50 is greater than 1000 nM. To B26 belongs 83 nM. As for B27, the EC50 was greater than 1000 nM. Under B28 stands greater than 1000 nM; under B29, 205 nM; under B30, 55 nM.

Consider B31, for which the EC50 is 5 nM. Under B32 stands greater than 1000 nM; under B33, 5 nM.

(Values after patent US11155602B2, “Polypeptides targeting HIV fusion” (priority 2015, dated 2021).)
